Measurements from PMC4045939 (2014).

T1: RSV M2 protein peptide on H-2Kd (mouse)
T1 peptide: SYIGSINNI


Target: T1, RSV M2 protein peptide on H-2Kd
Assay: in vitro CTL assay; CB6F1 splenocyte targets loaded with graded M2 peptide, E:T ratio of 50; EC50 from a 4-parameter non-linear fit; full-length, on cells

Row | Binder | EC50 of peptide
1 | TRBV13-2 (TCR) alpha TRAV7-3*01 CDR3: CAVNSGYNKLTF beta TRBV13-2*01 CDR3: CASGAGTGYAEQFF | 0.243 nM
2 | TRBV13-1 (TCR) alpha TRAV12-2*01 CDR3: CALRNNNNAPRF beta TRBV13-1*02 CDR3: CASSDGGKEVFF | 0.0571 nM
